Consider 14 molecules from publication PMC7057269 (Journal of Molecular Biology, 2020).

The test system of test [1] is Fab397. In words: Isothermal titration calorimetry (ITC), NANP repeat peptides to Fab397. To be noted: for TΔS / ΔH / ΔS / No. of sites (N-value) / Kd: ITC, arithmetic mean ± SD, n = 4; for TΔS / ΔH / ΔS: Fab397, 25 °C; for No. of sites (N-value) / Kd: peptide in syringe, 8.9 μM Fab397 in cell, DPBS, 25 °C, single-site model. The class given is binding, human. The method, then:
Titrations were performed on a MicroCal Auto-iTC200 (GE Healthcare, Chicago, IL). Prior to the experiments, wild-type Fab397 was extensively dialyzed against Dulbecco's PBS (Thermo Fisher, Waltham, MA). […] The Fab and peptide concentrations were determined by UV absorbance at 280 nm and 205 nm. Molar extinction coefficients for the peptides at 205 nm were estimated using a previously published method. The titrations were all performed with peptides in the syringe and antibodies in the cell and consisted of 16 injections of 2.45 μL peptide at a rate of 0.5 μl/s […], with injection duration of 4.9 s, injection interval of 180 s, and reference power of 5 μCal. Experiments were conducted in quadruplet (N = 4) at 25 °C. Fitting of the integrated titration peaks was performed with Origin 7.0 software using a single-site binding model. The first data point was excluded from the fit as commonly done.
Data for sporozoite ELISA assay (N = 2) were fitted and plotted using GraphPad Prism, version 7.0. For mouse liver burden assay (N = 5 mice), data were compared for significance using a Mann–Whitney U test with p < 0.05 indicated a statistically significant difference. […] All statistical parameters and graphs for the mouse liver burden assay were calculated and plotted using R with the Hmisc and ggplot2 packages. Each ITC experiment was performed with four replicates (N = 4), and the data were reported as the arithmetic mean ± SD.
A general note: ITC needs no label: the signal is the heat of the interaction.

In test [2] the target is Fab317. On the set-up: method as in PMID 29138320. Particulars: Fab317 with NPNA3; cited from earlier work.
Test [3] deals with T1, biotinylated NPNA3 peptide (Biotin-linker-NPNANPNANPNA-NH2) (Plasmodium falciparum, synthetic CSP …, reading uncertain).
T1 construct: not shown: biotin, N-terminal, kept
T1 chain: {Biotin-linker}-NPNANPNANPNA-NH2
In words: BLI. To be noted: both partners purified.

The target of test [4] is T2, NPNA8 peptide (Ac-NPNANPNANPNANPNANPNANPNANPNANPNA-NH2) (Plasmodium falciparum, synthetic CSP …).
T2 construct: also called (NANP)8
T2 chain: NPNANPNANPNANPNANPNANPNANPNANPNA
In words: ITC. To be noted: both partners purified.

In test [5] the target is T3, NPNA4 peptide (Ac-NPNANPNANPNANPNA-NH2) (Plasmodium falciparum, synthetic CSP …).
T3 construct: also called (NANP)4
T3 chain: Ac-NPNANPNANPNANPNA-NH2
Put plainly: ITC. To be noted: both partners purified.

For test [6], the target named is T2, NPNA8 peptide …. In words: negative-stain electron microscopy. To be noted: both partners purified.

* marks the point of attachment. Biotin = O=C1N[C@H]2[C@H](CS[C@H]2CCCCC(=O)*)N1; linker = not defined here

With `CC(=O)N[C@@H](CC(N)=O)C(=O)N1CCC[C@H]1C(=O)N[C@@H](CC(N)=O)C(=O)N[C@@H](C)C(=O)N[C@@H](CC(N)=O)C(=O)N1CCC[C@H]1C(=O)N[C@@H](CC(N)=O)C(=O)N[C@@H](C)C(N)=O` [NPNA2], in test [1], the TΔS is -5.859 ± 0.593 kcal/mol, the ΔH was -13.303 ± 0.556 kcal/mol, the ΔS was −19.7 ± 2.0 cal^−1·mol^−1·K^−1 and the “No. of sites (N-value)” value is recorded as 1.25 ± 0.02.

As usually defined, the Kd is a measure of binding affinity in units of concentration. Take `CC(=O)N[C@@H](CC(N)=O)C(=O)N1CCC[C@H]1C(=O)N[C@@H](CC(N)=O)C(=O)N[C@@H](C)C(=O)N[C@@H](CC(N)=O)C(=O)N1CCC[C@H]1C(=O)N[C@@H](CC(N)=O)C(=O)N[C@@H](C)C(=O)N[C@@H](CC(N)=O)C(=O)N1CCC[C@H]1C(=O)N[C@@H](CC(N)=O)C(=O)N[C@@H](C)C(=O)N[C@@H](CC(N)=O)C(=O)N1CCC[C@H]1C(=O)N[C@@H](CC(N)=O)C(=O)N[C@@H](C)C(N)=O` [NPNA4]: in test [1], the TΔS was -9.884 ± 0.147 kcal/mol, the ΔH is -19.915 ± 0.102 kcal/mol, the ΔS was −33.2 ± 0.5 cal^−1·mol^−1·K^−1 and the Kd turned out to be 44 ± 3 nM. The “No. of sites (N-value)” value in test [1] was determined as 1.14 ± 0.01.

As to `CC(=O)N[C@@H](CC(N)=O)C(=O)N1CCC[C@H]1C(=O)N[C@@H](CC(N)=O)C(=O)N[C@@H](C)C(=O)N[C@@H](CC(N)=O)C(=O)N1CCC[C@H]1C(=O)N[C@@H](CC(N)=O)C(=O)N[C@@H](C)C(=O)N[C@@H](CC(N)=O)C(=O)N1CCC[C@H]1C(=O)N[C@@H](CC(N)=O)C(=O)N[C@@H](C)C(=O)N[C@@H](CC(N)=O)C(=O)N1CCC[C@H]1C(=O)N[C@@H](CC(N)=O)C(=O)N[C@@H](C)C(=O)N[C@@H](CC(N)=O)C(=O)N1CCC[C@H]1C(=O)N[C@@H](CC(N)=O)C(=O)N[C@@H](C)C(=O)N[C@@H](CC(N)=O)C(=O)N1CCC[C@H]1C(=O)N[C@@H](CC(N)=O)C(=O)N[C@@H](C)C(=O)N[C@@H](CC(N)=O)C(=O)N1CCC[C@H]1C(=O)N[C@@H](CC(N)=O)C(=O)N[C@@H](C)C(=O)N[C@@H](CC(N)=O)C(=O)N1CCC[C@H]1C(=O)N[C@@H](CC(N)=O)C(=O)N[C@@H](C)C(N)=O` [NPNA8], in test [1] (ITC with Fab397, peptide:Fab ratio, or number of Fabs per peptide as worded), the “binding stoichiometry inferred from N-value” was “two Fabs bind per peptide”. In test [1], this molecule had a TΔS of -30.024 ± 0.179 kcal/mol, a ΔH of -40.09 ± 0.143 kcal/mol, a ΔS of −100.7 ± 0.6 cal^−1·mol^−1·K^−1 and a Kd of 41 ± 3 nM. Further, the “No. of sites (N-value)” value in test [1] is 0.56 ± 0.01.

As to “NPNA3: NPNA3 peptide, bound by Fab317 in ref 29 ({Biotin-linker}-NPNANPNANPNA-NH2; reading uncertain; also: linker not given here)”, the Kd in test [2] is 78 ± 16 nM.

B1: Fab317 wild type (Fab, V domains shown)
VH: QMQLVESGGGVVQPGRSLRLSCTASGFTFSTYAMHWVRQSPGQGLQWVAVISYHSTNKYYEDSVRGRFTISRDNSKNTLYLQMNSLRAEDTAVYYCARDGYSSSFFDFWGQGTLVTVSS
VL: DIQMTQSPSTLSASVGDRVAITCRASQSISRWLAWYQQQPGKAPKLLMSGASVLESGVPSRFSGSGSGTEFTLTISSLQPDDFATYYCQHYNSYFVTFGQGTKVEIK
As to B1, in test [3], the other came to 100%.

B2: Fab317 LW32A (Fab, V domains shown)
VH: QMQLVESGGGVVQPGRSLRLSCTASGFTFSTYAMHWVRQSPGQGLQWVAVISYHSTNKYYEDSVRGRFTISRDNSKNTLYLQMNSLRAEDTAVYYCARDGYSSSFFDFWGQGTLVTVSS
VL: DIQMTQSPSTLSASVGDRVAITCRASQSISRALAWYQQQPGKAPKLLMSGASVLESGVPSRFSGSGSGTEFTLTISSLQPDDFATYYCQHYNSYFVTFGQGTKVEIK
In test [3], B2 yielded an other of 20%.

B3: Fab311 wild type (Fab, V domains shown)
VH: QVQLVESGGGVVPPGRSLRLSCATSGFTFSNYGMHWVRQAPGKGLEWVAIIWYDGSRNFYAASVEGRFTISRDNSKNTLYLQMNSLRVEDTAVYYCARAAYYDTSGYGDYWGQGTLVTVSS
VL: QSVLTQPPSVSGAPGQTVTISCTGGSSNIGAGYDVHWYQQLPGTAPKLLIYGNINRPSGVPDRFSGSKSGTSASLAITGLQAEDEADYYCQSYDRRLSGSWVFGGGTKLTVL
For B3, the binding result in test [3] is recorded as “binds”.

B4: Fab311 HW52A (Fab, V domains shown)
VH: QVQLVESGGGVVPPGRSLRLSCATSGFTFSNYGMHWVRQAPGKGLEWVAIIAYDGSRNFYAASVEGRFTISRDNSKNTLYLQMNSLRVEDTAVYYCARAAYYDTSGYGDYWGQGTLVTVSS
VL: QSVLTQPPSVSGAPGQTVTISCTGGSSNIGAGYDVHWYQQLPGTAPKLLIYGNINRPSGVPDRFSGSKSGTSASLAITGLQAEDEADYYCQSYDRRLSGSWVFGGGTKLTVL
As to B4, in test [3], the other was found to be 26%.

B5: Fab397 wild type (Fab, V domains shown)
VH: EVQLVKSGGGLVKPGGSLRLSCAVSGFTFTDAWMSWVRQAPGKGPEWVGRIKSNPDGGTTDYAAPVRGRFTISRDDSKNTLYLQMNNLKTEDTAVYYCITDRDFYRSGGSWGQGTLVTV
VL: DIVMTQSPLSLPVTPGEPASISCRSRQSLLYSNGDNYLDWYLQKPGQSPQLLIYLGSNRAPGVPDRFSGSGSGTDFTLKISRVEAEDVGVYYCMQTLQTPHTFGQGTKLEIK
Broadly, the stoichiometry N is a count of units in the complex or per binding partner. Take B5: in test [3], the binding result is “binds”. In addition, in test [4], the equilibrium dissociation constant (Kd) was 41 nM, the dH was -40.1 kcal/mol and the “stoichiometry N” value is 0.56. For the same molecule, in test [5], the affinity, expressed as Kd, was 44 nM; the dH was -19.9 kcal/mol; the “stoichiometry N” value is 1.14. Besides, the “stoichiometry N” value in test [6] is 2.

B6: Fab397 HW33A (Fab, V domains shown)
VH: EVQLVKSGGGLVKPGGSLRLSCAVSGFTFTDAAMSWVRQAPGKGPEWVGRIKSNPDGGTTDYAAPVRGRFTISRDDSKNTLYLQMNNLKTEDTAVYYCITDRDFYRSGGSWGQGTLVTV
VL: DIVMTQSPLSLPVTPGEPASISCRSRQSLLYSNGDNYLDWYLQKPGQSPQLLIYLGSNRAPGVPDRFSGSGSGTDFTLKISRVEAEDVGVYYCMQTLQTPHTFGQGTKLEIK
In the case of B6, the binding result in test [3] is “no binding (tested: 2000 nM)”.

B7: Fab397 LY32A (Fab, V domains shown)
VH: EVQLVKSGGGLVKPGGSLRLSCAVSGFTFTDAWMSWVRQAPGKGPEWVGRIKSNPDGGTTDYAAPVRGRFTISRDDSKNTLYLQMNNLKTEDTAVYYCITDRDFYRSGGSWGQGTLVTV
VL: DIVMTQSPLSLPVTPGEPASISCRSRQSLLYSNGDNALDWYLQKPGQSPQLLIYLGSNRAPGVPDRFSGSGSGTDFTLKISRVEAEDVGVYYCMQTLQTPHTFGQGTKLEIK
B7: in test [3], the binding result is “no binding (tested: 2000 nM)”.

B8: Fab397 HD95A (Fab, V domains shown)
VH: EVQLVKSGGGLVKPGGSLRLSCAVSGFTFTDAWMSWVRQAPGKGPEWVGRIKSNPDGGTTDYAAPVRGRFTISRDDSKNTLYLQMNNLKTEDTAVYYCITARDFYRSGGSWGQGTLVTV
VL: DIVMTQSPLSLPVTPGEPASISCRSRQSLLYSNGDNYLDWYLQKPGQSPQLLIYLGSNRAPGVPDRFSGSGSGTDFTLKISRVEAEDVGVYYCMQTLQTPHTFGQGTKLEIK
Regarding B8, the binding result in test [3] was “no binding (tested: 2000 nM)”.

B9: Fab397 HR96A (Fab, V domains shown)
VH: EVQLVKSGGGLVKPGGSLRLSCAVSGFTFTDAWMSWVRQAPGKGPEWVGRIKSNPDGGTTDYAAPVRGRFTISRDDSKNTLYLQMNNLKTEDTAVYYCITDADFYRSGGSWGQGTLVTV
VL: DIVMTQSPLSLPVTPGEPASISCRSRQSLLYSNGDNYLDWYLQKPGQSPQLLIYLGSNRAPGVPDRFSGSGSGTDFTLKISRVEAEDVGVYYCMQTLQTPHTFGQGTKLEIK
As for B9, in test [3], the other stood at 77%.

B10: Fab397 LD30A (Fab, V domains shown)
VH: EVQLVKSGGGLVKPGGSLRLSCAVSGFTFTDAWMSWVRQAPGKGPEWVGRIKSNPDGGTTDYAAPVRGRFTISRDDSKNTLYLQMNNLKTEDTAVYYCITDRDFYRSGGSWGQGTLVTV
VL: DIVMTQSPLSLPVTPGEPASISCRSRQSLLYSNGANYLDWYLQKPGQSPQLLIYLGSNRAPGVPDRFSGSGSGTDFTLKISRVEAEDVGVYYCMQTLQTPHTFGQGTKLEIK
B10 showed an other in test [3] of 66%.
